# Measured values reported in PMC10786891, “Massively parallel profiling of RNA-targeting CRISPR-Cas13d”.
# Substitutions are numbered along the chain they refer to. Names may count otherwise.
# B1: target 1 G17A,A18U (mixed)
# RNA 1: CACCCGUGCAAAAAUGCAGGGGUCUAAAACUGAGCGGAUAACCUCUCUAUGG
# RNA 2: GGGAAUGGAUCCACAUCUACGAAUUCGUACCAUUAAGAGGUUAUCCGCUCACCGAGAUCGGAAGAGCACACGU
# B2: target 1 insC 3' of 20,insA 3' of 10 (mixed)
# RNA 1: B1 RNA 1
# RNA 2: GGGAAUGGAUCCACAUCUACGAAUUCGUACCACUAGAGAGGUUAAUCCGCUCACCGAGAUCGGAAGAGCACACGU
# B3: target 1 A1U,G17A (mixed)
# RNA 1: B1 RNA 1
# RNA 2: B1 RNA 2 with U34A, A51U
# B4: target 1 del8,del19 (mixed)
# RNA 1: B1 RNA 1
# RNA 2: GGGAAUGGAUCCACAUCUACGAAUUCGUACCAAGAGAGGUUACCGCUCACCGAGAUCGGAAGAGCACACGU
# B5: target 1 G5U,C7U (mixed)
# RNA 1: B1 RNA 1
# RNA 2: B1 RNA 2 with U34A, A35G, C45U, G47U
# B6: target 1 insG 3' of 7,insA 3' of 5 (mixed)
# RNA 1: B1 RNA 1
# RNA 2: GGGAAUGGAUCCACAUCUACGAAUUCGUACCAUAGAGAGGUUAUCGCGACUCACCGAGAUCGGAAGAGCACACGU
# B7: target 1 U8G,G17C (mixed)
# RNA 1: B1 RNA 1
# RNA 2: B1 RNA 2 with U34A, A35C, U44G
# B8: target 1 insU 3' of 7,insU 3' of 4 (mixed)
# RNA 1: B1 RNA 1
# RNA 2: B6 RNA 2 with G46U, A49C, C50U
# B9: target 1 insC 3' of 18,insG 3' of 4 (mixed)
# RNA 1: B1 RNA 1
# RNA 2: B2 RNA 2 with C33U, U34A, A35C, A45U, U46C, C48G, G49C, C50G
# B10: target 1 C6G,U10C (mixed)
# RNA 1: B1 RNA 1
# RNA 2: B1 RNA 2 with U34A, A35G, U42C, C46G
# B11: target 1 A9U,A16C (mixed)
# RNA 1: B1 RNA 1
# RNA 2: B1 RNA 2 with U34A, A35G, A36C, A43U
# B12: target 1 insG 3' of 19,insA 3' of 3 (mixed)
# RNA 1: B1 RNA 1
# RNA 2: B2 RNA 2 with C33U, U34G, A45U, U46C, C48G, G49C, C50U, U51A
# B13: target 1 C7G,U8A (mixed)
# RNA 1: B1 RNA 1
# RNA 2: B1 RNA 2 with U34A, A35G, U44A, C45G
# B14: target 1 C7G,A14C (mixed)
# RNA 1: B1 RNA 1
# RNA 2: B1 RNA 2 with U34A, A35G, A38C, C45G
# B15: target 1 insC 3' of 15,insU 3' of 13 (mixed)
# RNA 1: B1 RNA 1
# RNA 2: B6 RNA 2 with A38C, G39A, U42G, A43U, C45A, G46U, G48C, A49G
# B16: target 1 insC 3' of 13,insG 3' of 9 (mixed)
# RNA 1: B1 RNA 1
# RNA 2: B6 RNA 2 with G40C, U41G, A43U, U44A, C45G, G46U, G48C, A49G
# B17: target 1 del5,del7 (mixed)
# RNA 1: B1 RNA 1
# RNA 2: GGGAAUGGAUCCACAUCUACGAAUUCGUACCAUAGAGAGGUUAUCCUCACCGAGAUCGGAAGAGCACACGU
# B18: target 1 insU 3' of 21,insA 3' of 7 (mixed)
# RNA 1: B1 RNA 1
# RNA 2: B2 RNA 2 with A32U, C33A, A45U, U46C, C47A
# B19: target 1 insA 3' of 3,insC 3' of 3 (mixed)
# RNA 1: B1 RNA 1
# RNA 2: B6 RNA 2 with G46C, C47G, G48C, A49U, C50A, U51C
# B20: target 1 insA 3' of 22,insU 3' of 18 (mixed)
# RNA 1: B1 RNA 1
# RNA 2: GGGAAUGGAUCCACAUCUACGAAUUCGUACACAUAUGAGAGGUUAUCCGCUCACCGAGAUCGGAAGAGCACACGU
# B21: target 1 insC 3' of 10,insG 3' of 10 (mixed)
# RNA 1: B1 RNA 1
# RNA 2: B6 RNA 2 with A43C, U44G, C45A, G46U, G48C, A49G
# B22: target 1 insG 3' of 22,insC 3' of 5 (mixed)
# RNA 1: B1 RNA 1
# RNA 2: B2 RNA 2 with C31G, A32C, C33A, A45U, U46C, C48G, G49C
# B23: target 1 C6A,U8C (mixed)
# RNA 1: B1 RNA 1
# RNA 2: B1 RNA 2 with U34A, A35G, U44C, C46A
# B24: target 1 insC 3' of 11,insG 3' of 2 (mixed)
# RNA 1: B1 RNA 1
# RNA 2: B6 RNA 2 with U42C, A43U, U44A, C45U, G46C, A49C, C50U, U51C, C52G
# B25: target 1 insA 3' of 7,insA 3' of 7 (mixed)
# RNA 1: B1 RNA 1
# RNA 2: B6 RNA 2 with G46A, C47A, G48C, A49G
# B26: target 1 U3G,A18U (mixed)
# RNA 1: B1 RNA 1
# RNA 2: B1 RNA 2 with A35G, U49G
# B27: target 1 insU 3' of 15,insC 3' of 14 (mixed)
# RNA 1: B1 RNA 1
# RNA 2: B20 RNA 2 with A31C, C32A, A33U, U34A, A35G, U36A, A38U, G39A, A40C
# B28: target 1 insA 3' of 17,insG 3' of 10 (mixed)
# RNA 1: B1 RNA 1
# RNA 2: B2 RNA 2 with C33U, U34A, A35G, G36A, A44G
# B29: target 1 insC 3' of 11,insG 3' of 10 (mixed)
# RNA 1: B1 RNA 1
# RNA 2: B6 RNA 2 with U42C, A43U, U44G, C45A, G46U, G48C, A49G
# B30: target 1 insU 3' of 12,insU 3' of 9 (mixed)
# RNA 1: B1 RNA 1
# RNA 2: B6 RNA 2 with A43U, U44A, C45U, G46U, G48C, A49G
# B31: target 1 complement block 4-10 (mixed)
# RNA 1: B1 RNA 1
# RNA 2: B1 RNA 2 with U34A, A35G, U42A, A43U, U44A, C45G, C46G, G47C, C48G
# B32: target 1 insG 3' of 11 (mixed)
# RNA 1: B1 RNA 1
# RNA 2: GGGAAUGGAUCCACAUCUACGAAUUCGUACCAUAGAGAGGUGUAUCCGCUCACCGAGAUCGGAAGAGCACACGU
# B33: target 1 U3G,A16G (mixed)
# RNA 1: B1 RNA 1
# RNA 2: B1 RNA 2 with U34A, A35G, A36G, U49G
# Target: T1, EsCas13d, nuclease-dead (Eubacterium siraeum, UniProt B0MS50, R295A;H300A;R849A;H854A)
# T1 sequence: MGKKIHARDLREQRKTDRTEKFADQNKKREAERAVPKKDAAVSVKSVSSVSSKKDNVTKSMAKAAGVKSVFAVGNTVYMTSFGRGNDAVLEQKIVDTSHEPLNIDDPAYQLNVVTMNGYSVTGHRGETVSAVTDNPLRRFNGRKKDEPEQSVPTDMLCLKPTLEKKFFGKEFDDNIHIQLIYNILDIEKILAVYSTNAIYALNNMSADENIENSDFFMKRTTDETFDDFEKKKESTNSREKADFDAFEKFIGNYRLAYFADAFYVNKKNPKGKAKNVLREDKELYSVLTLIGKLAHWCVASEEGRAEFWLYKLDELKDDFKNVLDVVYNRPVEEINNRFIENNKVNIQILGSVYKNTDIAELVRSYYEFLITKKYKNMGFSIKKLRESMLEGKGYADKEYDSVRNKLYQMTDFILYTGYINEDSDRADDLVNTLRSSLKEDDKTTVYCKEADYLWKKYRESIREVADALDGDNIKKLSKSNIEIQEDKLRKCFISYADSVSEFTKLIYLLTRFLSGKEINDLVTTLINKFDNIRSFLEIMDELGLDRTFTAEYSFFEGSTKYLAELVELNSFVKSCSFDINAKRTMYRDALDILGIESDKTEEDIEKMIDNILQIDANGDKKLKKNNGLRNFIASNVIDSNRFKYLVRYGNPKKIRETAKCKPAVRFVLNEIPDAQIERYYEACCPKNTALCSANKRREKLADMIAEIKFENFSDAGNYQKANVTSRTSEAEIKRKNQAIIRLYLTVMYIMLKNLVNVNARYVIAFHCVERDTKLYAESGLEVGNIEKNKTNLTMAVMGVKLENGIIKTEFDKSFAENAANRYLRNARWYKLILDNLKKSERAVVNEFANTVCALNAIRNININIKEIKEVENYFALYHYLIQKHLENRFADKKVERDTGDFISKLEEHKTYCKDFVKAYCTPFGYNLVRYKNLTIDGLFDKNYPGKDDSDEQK
# Test: crRNA (strand 1, pre-loaded); Mg2+; 40 mM Tris-HCl pH 7.5, 150 mM NaCl, 6 mM MgCl2, 1 mM DTT, 0.1% Tween-20, 0.2 mg/ml BSA; 25 C; 10 min per concentration, then washed
# Details: tags: His6-TwinStrep-SUMO cleaved; N-terminal SNAP kept (SNAP-Surface 488); label: 3' end held by stalled T7 RNA polymerase
row,Binder,Kd
1,B1,50 ± 12 nM
2,B2,10.1 ± 0.4 nM
3,B3,36 ± 10 nM
4,B4,64 ± 7 nM
5,B5,53 ± 6 nM
6,B6,7.33 ± 0.33 nM
7,B7,72 ± 15 nM
8,B8,15.2 ± 0.6 nM
9,B9,35.7 ± 2 nM
10,B10,14.2 ± 0.4 nM
11,B11,45 ± 6 nM
12,B12,49 ± 5 nM
13,B13,7.45 ± 0.24 nM
14,B14,33.5 ± 2.9 nM
15,B15,26 ± 5 nM
16,B16,13 ± 0.9 nM
17,B17,13.9 ± 0.7 nM

row,Binder,Kd
1,B18,20.3 ± 0.9 nM
2,B19,62 ± 19 nM
3,B20,47 ± 6 nM
4,B21,13.6 ± 0.5 nM
5,B22,67 ± 23 nM
6,B23,10.7 ± 0.6 nM
7,B24,42 ± 14 nM
8,B25,7 ± 0.5 nM
9,B26,20.5 ± 1.3 nM
10,B27,43 ± 6 nM
11,B28,43 ± 9 nM
12,B29,23.4 ± 2.5 nM
13,B30,29 ± 5 nM
14,B31,13.4 ± 0.4 nM
15,B32,33.3 ± 3.1 nM
16,B33,27.1 ± 1.5 nM
